Patent publication US20220235344A1, “TRYPSIN VARIANTS WITH IMPROVED ENZYMATIC PROPERTIES” (BIOPHARMA TRANSLATIONSINSTITUT DESSAU FORSCHUNGS GMBH, priority 2018, published 2022)

Columns and labels:
H-RAHAK(DNP)-OH = molecular target: T1, H-RAHAK(DNP)-OH
T1 chain: RAHAK

H-RHAK-OH = molecular target: T2, H-RHAK-OH
T2 chain: RHAK

[1] = system: Bz-AAYRHAAG-OH (acyl donor) / H-RHAK-OH (acyl acceptor); experiment: Model transamidation reaction, Trypsiligase I and improved variants (Example 1); assay type: biochemical; details: for kcat, HL^app (mkat/mol) / kcat,AL^app, apparent turnover rate for aminolysis (head is formula image MATH:00001) / product yield (%): 250 μM Bz-AAYRHAAG-OH, 500 μM H-RHAK-OH, 0.1 mM ZnCl2, pH 7.8, 30° C.; for product yield (%): 5-10 μM trypsin variant; for kcat, AL^app/kcat, HL^app: 250 μM acyl donor, 500 μM acyl acceptor, 0.1 mM ZnCl2; for Km: constant acyl donor concentration, varying acyl acceptor concentrations
Method: Peptide and reaction analytics were performed using a Waters ACQUITY UPLC System equipped with an RP-C18 column (ACQUITY UPLC BEH 130, C18, 1.7 μm, 2.1×100 mm) at flow rates of 0.5 ml/min. The used mobile phases are: water with 0.05% TFA (A) and acetonitrile with 0.05% TFA (B), respectively. For analysis two methods were applied: Method I: linear gradient of 5-40% B in 5 min, detection at 254 nm.
Quantities of product and educt were calculated from the integrated peak areas.
The measurements of the product yield and the apparent tumover rates for aminolysis (kcat,AL^app) and hydrolysis (kcat,HL^app) were performed by a model transamidation reaction with the following conditions: 250 μM Bz-[…]-OH (acyl donor), 500 μM H-RHAK-OH (acyl acceptor), 5-10 μM trypsin variant, 100 mM HEPES/NaOH pH 7.8, 0.1 mM ZnCl2, 100 mM NaCl, 10 mM CaCl2, T=30° C. KM values for the acyl acceptor were determined by the measurements of apparent turnover rates for aminolysis at constant acyl donor concentration and varying acyl acceptor concentrations.

[2] = system: Bz-AAYRHAAG-OH (acyl donor) / H-RHAK-OH (acyl acceptor); experiment: Model transamidation reaction at low substrate concentration, Trypsiligase I, 2G10, 1C11, hybrid (Example 2); assay type: biochemical; details: for product yield (%): 15 μM Bz-AAYRHAAG-OH, 30 μM H-RHAK-OH, 0.5-2.1 μM trypsin variant, 0.1 mM ZnCl2, pH 7.8, 30° C.; for kcat, AL^app (mkat/mol) / kcat, AL^app/kcat, HL^app / kcat, HL^app (mkat/mol): 15 μM acyl donor, 30 μM acyl acceptor, 0.1 mM ZnCl2
Method: FIG. 1: Time course of product formation for a transamidation reaction catalyzed by Trypsiligase I as well as the improved variants 2G10, 1C11 and the hybrid variant. Reaction conditions: 15 μM Bz-[…]-OH (acyl donor), 30 μM H-RHAK-OH (acyl acceptor), 0.5-2.1 μM trypsin variant, 100 mM HEPES/NaOH pH 7.8, 0.1 mM ZnCl2, 100 mM NaCl, 10 mM CaCl2, T=30° C. UPLC analysis: Waters Acquity Ultra Performance LC, C18-column, gradient 5-40% acetonitrile, 4 min, detection at 254 nm.
The measurements of the product yield and the apparent tumover rates for aminolysis (kcat,AL^app) and hydrolysis (kcat,HL^app) were performed by a model transamidation reaction with the following conditions: 15 μM Bz-[…]-OH (acyl donor), 30 μM H-RHAK-OH (acyl acceptor), 0.5-2.1 μM trypsin variant, 100 mM HEPES/NaOH pH 7.8, 0.1 mM ZnCl2, 100 mM NaCl, 10 mM CaCl2, T=30° C.

[3] = system: Bz PGGXaaXaaXaaHAG-OH / H-XaaXaaXaaAK(DNP)-OH (recognition sequences YRRH, YMKH, RMKH); experiment: Time course of transamidation by A2C8_H39Y/H59Y/E60K/K189D and wild-type trypsin (FIG. 5); assay type: biochemical; details: recognition sequences YRRH, YMKH and RMKH; 10 μM variant or 2.5 nM anionic rat trypsin II
Method: FIG. 5: Time course of the product formation for a transamidation reaction catalyzed by the variant A2C8_H39Y/H59Y/E60K/K189D as well as the wild-type Trypsin in correlation to various peptide substrates. Reaction conditions: 100 μM acyl donor (Bz PGGXaaXaaXaaHAG-OH), 200 μM acyl acceptor (H-XaaXaaXaaAK(DNP)-OH), 10 μM trypsin variant A2C8_H39Y/H59Y/E60K/K189D or 2.5 nM anionic rat trypsin II, 100 mM HEPES/NaOH pH 7.8, 0.1 mM ZnCl2, 100 mM NaCl, 10 mM CaCl2, T=30° C. UPLC analysis: Waters Acquity Ultra Performance LC, C18-column, gradient 5-60% acetonitrile, 5 min, detection at 360 nm.
The three substrates with the highest apparent turnover rate for the aminolysis reaction were then used for investigating the synthesis behavior of variant A2C8_H39Y/H59Y/E60K/K189D. In FIG. 5 the time course of product formation for a transamidation reaction catalyzed by variant A2C8_H39Y/H59Y/E60K/K189D with various peptide substrates is illustrated.

| Molecule | KM, acyl acceptor (µM); zinc ions (100 µM): no; transamidation with 250 µM Bz-PGGYRAHAG-OH as acyl donor (H-RAHAK(DNP)-OH) [µM] | fold improvement of KM of the nucleophilic peptide against Trypsiligase II in the absence of zinc ions (H-RAHAK(DNP)-OH) | fold improvement of KM of the nucleophilic peptide against Trypsiligase II in the presence of zinc ions (H-RAHAK(DNP)-OH) | KM, acyl acceptor (µM); transamidation with Bz-AAYRHAAG-OH as acyl donor, 0.1 mM ZnCl2 (H-RHAK-OH) [µM] | enzyme kinetic analyses (worded result) (H-RHAK-OH) | affinity for the nucleophilic substrate compared to Trypsiligase I [1] | kcat, HL^app (mkat/mol) [1] [mkat/mol] | kcat,AL^app, apparent turnover rate for aminolysis (head is formula image MATH:00001) [1] | product yield (%) [1] [%] | kcat, AL^app/kcat, HL^app [1] | Km [1] [µM] | aminolysis activity lowered by factor ([1]; versus Trypsiligase I) | increase for the ratio of aminolysis to hydrolysis activity (factor) ([1]; versus Trypsiligase I) | product yield (%) [2] [%] | kcat, AL^app (mkat/mol) [2] [mkat/mol] | kcat, AL^app/kcat, HL^app [2] | kcat, HL^app (mkat/mol) [2] [mkat/mol] | product formation [3] |
| --- | --- | --- | --- | --- | --- | --- | --- | --- | --- | --- | --- | --- | --- | --- | --- | --- | --- | --- |
| Trypsiligase II variant A2C8 (protein) IVGGYTCQENSVPYQVSLNSGHFFCGGSLINDQWVVSAAHCHESRIQVRLGEHNINVLEGNEQFVNAAKIIKHPNFDEDTFNNDIMLIKLSSPVKLNARVATVALPSSCAPAGTQCLISGWGETLSSGVNYPDLLQCLDAPLLPQADCEASYPGKITDNMVCVGFLEGGKKVCAGDSGGPVVCNGELQGIVGWGYQCTLPDNPGVYTKVCNYVDWIQDTIAAN | 17.6 | by a factor of 8 and 92 in the presence or absence of zinc ions, respectively | by a factor of 8 and 92 in the presence or absence of zinc ions, respectively | – | – | – | – | – | – | – | – | – | – | – | – | – | – | – |
| Trypsiligase I (trypsin variant K60E/N143H/E151H/D189K) (protein) IVGGYTCQENSVPYQVSLNSGYHFCGGSLINDQWVVSAAHCYESRIQVRLGEHNINVLEGNEQFVNAAKIIKHPNFDRKTLNNDIMLIKLSSPVKLNARVATVALPSSCAPAGTQCLISGWGHTLSSGVNHPDLLQCLDAPLLPQADCEASYPGKITDNMVCVGFLEGGKKSCQGDSGGPVVCNGELQGIVSWGYGCALPDNPGVYTKVCNYVDWIQDTIAAN | – | – | – | 222 | – | – | – | – | – | – | – | – | – | – | – | – | – | – |
| Trypsiligase I variant 1C11 (protein) IVGGYTCQENSVPYQVSLNSGYHFCGGSLINDQWVVSAAHCYESRIQVRLGEHNINVLEGNEQFVNAAKIIKHPNFDVKTFNNDIMLIKLSSPVKLNARVATVALPSSCAPAGTQCLISGWGHTLSSGVNHPDLLQCLDAPLLPQADCEASYPGKITDNMVCVGFLEGGKKSCQGDSGGPVVCNGELQGIVGWGYSCGLPDNPGVYTKVCNYVDWIQDTIAAN | – | – | – | > 5000 | An improved affinity for the nucleophile could not be shown for this variant. | An improved affinity for the nucleophile could not be shown | 0.3 | 16.0 | 60.9 | 57.0 | > 5000 | 3 | 13 | 53.9 | 6.24 | 6.4 | 0.97 | – |
| wild-type trypsin: mature anionic rat trypsin II from Rattus norvegicus, SEQ ID NO: 1 (protein, Rat anionic trypsin II) IVGGYTCQENSVPYQVSLNSGYHFCGGSLINDQWVVSAAHCYKSRIQVRLGEHNINVLEGNEQFVNAAKIIKHPNFDRKTLNNDIMLIKLSSPVKLNARVATVALPSSCAPAGTQCLISGWGNTLSSGVNEPDLLQCLDAPLLPQADCEASYPGKITDNMVCVGFLEGGKDSCQGDSGGPVVCNGELQGIVSWGYGCALPDNPGVYTKVCNYVDWIQDTIAAN | – | – | – | – | – | – | – | – | – | – | – | – | – | – | – | – | – | Nearly no product formation |
| Trypsiligase I variant 2G10 (protein) IVGGYTCQENSVPYQVSLNSGYPFCGGSLINDQWVVSSAHCYESRIQVRLGEHNINVLEGNEQFVNAAKIIKHPNFDRDTFNNDIMLIKLSSPVKLNARVATVALPSSCAPAGTQCLISGWGHTLSSGVNHPDLLQCLDAPLLPQADCEASYPGKITDNMVCVGFLEGGKKSCEGDSGGPVVCNGELQGIVSWGYGCALPDNPGVYTKVCNYVDWIQDTIAAN | – | – | – | 23 | shows a strongly increased affinity for the nucleophilic RH substrate compared to the initial enzyme Trypsiligase I | strongly increased affinity for the nucleophilic RH substrate | 2.5 | 65.1 | 59.3 | 26.0 | 23 | – | 6 | 39.6 | 16.39 | 3.3 | 5.03 | – |
